Substrate in series [1]: CC1(C)S[C@@H]2[C@H](NC(=O)Cc3ccccc3)C(=O)N2[C@H]1C(=O)O
Description: (§1) Activity of Klebsiella pneumoniae SHV1 assessed as drug hydrolysis by spectrophotometry.

Substrate in series [2]: O=C(Cc1cccs1)N[C@@H]1C(=O)N2C(C(=O)[O-])=C(C[n+]3ccccc3)CS[C@H]12
The description is as §1.

Substrate in series [3]: CO/N=C(\C(=O)N[C@@H]1C(=O)N2C(C(=O)[O-])=C(C[N+]3(C)CCCC3)CS[C@H]12)c1csc(N)n1
The description is as §1.

Substrate in series [4]: Nc1nc(/C(=N/O)C(=O)N[C@@H]2C(=O)N3C(C(=O)O)=C(/C=C4\CCN([C@@H]5CCNC5)C4=O)CS[C@H]23)ns1
The description is as §1.

Substrate in series [5]: CC1(C)S[C@@H]2[C@H](NC(=O)Cc3ccccc3)C(=O)N2[C@H]1C(=O)O
In words: (§2) Ratio of Kcat to Km of Klebsiella pneumoniae SHV1 assessed as drug hydrolysis by spectrophotometry.

Substrate in series [6]: O=C(Cc1cccs1)N[C@@H]1C(=O)N2C(C(=O)[O-])=C(C[n+]3ccccc3)CS[C@H]12
Described as §2.

Substrate in series [7]: CO/N=C(\C(=O)N[C@@H]1C(=O)N2C(C(=O)[O-])=C(C[N+]3(C)CCCC3)CS[C@H]12)c1csc(N)n1
The series is described as §2.

Substrate in series [8]: Nc1nc(/C(=N/O)C(=O)N[C@@H]2C(=O)N3C(C(=O)O)=C(/C=C4\CCN([C@@H]5CCNC5)C4=O)CS[C@H]23)ns1
Described as §2.

Substrate in series [9]: CC1(C)S[C@@H]2[C@H](NC(=O)Cc3ccccc3)C(=O)N2[C@H]1C(=O)O
Description: (§3) Activity of Staphylococcus aureus betalactamase PC1 assessed as drug hydrolysis by spectrophotometry.

Substrate in series [10]: CC(C)(O/N=C(\C(=O)N[C@@H]1C(=O)N2C(C(=O)[O-])=C(C[n+]3ccccc3)CS[C@H]12)c1csc(N)n1)C(=O)O
Described as §3.

Substrate in series [11]: O=C(Cc1cccs1)N[C@@H]1C(=O)N2C(C(=O)[O-])=C(C[n+]3ccccc3)CS[C@H]12
The series is described as §3.

Substrate in series [12]: CO/N=C(\C(=O)N[C@@H]1C(=O)N2C(C(=O)[O-])=C(C[N+]3(C)CCCC3)CS[C@H]12)c1csc(N)n1
The description is as §3.

Substrate in series [13]: Nc1nc(/C(=N/O)C(=O)N[C@@H]2C(=O)N3C(C(=O)O)=C(/C=C4\CCN([C@@H]5CCNC5)C4=O)CS[C@H]23)ns1
The series is described as §3.

Substrate in series [14]: CC1(C)S[C@@H]2[C@H](NC(=O)Cc3ccccc3)C(=O)N2[C@H]1C(=O)O
In words: (§4) Ratio of Kcat to Km of Staphylococcus aureus betalactamase PC1 assessed as drug hydrolysis by spectrophotometry.

Substrate in series [15]: CC(C)(O/N=C(\C(=O)N[C@@H]1C(=O)N2C(C(=O)[O-])=C(C[n+]3ccccc3)CS[C@H]12)c1csc(N)n1)C(=O)O
The series is described as §4.

Substrate in series [16]: O=C(Cc1cccs1)N[C@@H]1C(=O)N2C(C(=O)[O-])=C(C[n+]3ccccc3)CS[C@H]12
Described as §4.

Substrate in series [17]: CO/N=C(\C(=O)N[C@@H]1C(=O)N2C(C(=O)[O-])=C(C[N+]3(C)CCCC3)CS[C@H]12)c1csc(N)n1
The series is described as §4.

Substrate in series [18]: Nc1nc(/C(=N/O)C(=O)N[C@@H]2C(=O)N3C(C(=O)O)=C(/C=C4\CCN([C@@H]5CCNC5)C4=O)CS[C@H]23)ns1
The series is described as §4.

Substrate in series [19]: CC1(C)S[C@@H]2[C@H](NC(=O)Cc3ccccc3)C(=O)N2[C@H]1C(=O)O
In words: (§5) Activity of Serratia marcescens AmpC assessed as drug hydrolysis by spectrophotometry.

Substrate in series [20]: CC(C)(O/N=C(\C(=O)N[C@@H]1C(=O)N2C(C(=O)[O-])=C(C[n+]3ccccc3)CS[C@H]12)c1csc(N)n1)C(=O)O
The series is described as §5.

Substrate in series [21]: O=C(Cc1cccs1)N[C@@H]1C(=O)N2C(C(=O)O)=C(/C=C/c3ccc([N+](=O)[O-])cc3[N+](=O)[O-])CS[C@H]12
The series is described as §5.

Substrate in series [22]: O=C(Cc1cccs1)N[C@@H]1C(=O)N2C(C(=O)[O-])=C(C[n+]3ccccc3)CS[C@H]12
The description is as §5.

Substrate in series [23]: CO/N=C(\C(=O)N[C@@H]1C(=O)N2C(C(=O)[O-])=C(C[N+]3(C)CCCC3)CS[C@H]12)c1csc(N)n1
Described as §5.

Substrate in series [24]: Nc1nc(/C(=N/O)C(=O)N[C@@H]2C(=O)N3C(C(=O)O)=C(/C=C4\CCN([C@@H]5CCNC5)C4=O)CS[C@H]23)ns1
The series is described as §5.

Substrate in series [25]: CC1(C)S[C@@H]2[C@H](NC(=O)Cc3ccccc3)C(=O)N2[C@H]1C(=O)O
Description: (§6) Ratio of Kcat to Km of Serratia marcescens AmpC assessed as drug hydrolysis by spectrophotometry.

Substrate in series [26]: CC(C)(O/N=C(\C(=O)N[C@@H]1C(=O)N2C(C(=O)[O-])=C(C[n+]3ccccc3)CS[C@H]12)c1csc(N)n1)C(=O)O
Described as §6.

Substrate in series [27]: O=C(Cc1cccs1)N[C@@H]1C(=O)N2C(C(=O)O)=C(/C=C/c3ccc([N+](=O)[O-])cc3[N+](=O)[O-])CS[C@H]12
The series is described as §6.

Substrate in series [28]: O=C(Cc1cccs1)N[C@@H]1C(=O)N2C(C(=O)[O-])=C(C[n+]3ccccc3)CS[C@H]12
Described as §6.

Substrate in series [29]: CO/N=C(\C(=O)N[C@@H]1C(=O)N2C(C(=O)[O-])=C(C[N+]3(C)CCCC3)CS[C@H]12)c1csc(N)n1
The description is as §6.

Substrate in series [30]: Nc1nc(/C(=N/O)C(=O)N[C@@H]2C(=O)N3C(C(=O)O)=C(/C=C4\CCN([C@@H]5CCNC5)C4=O)CS[C@H]23)ns1
The series is described as §6.

B1: Beta-lactamase SHV-1 (Klebsiella pneumoniae), P0AD64 (protein)
chain: MRYIRLCIISLLATLPLAVHASPQPLEQIKLSESQLSGRVGMIEMDLASGRTLTAWRADERFPMMSTFKVVLCGAVLARVDAGDEQLERKIHYRQQDLVDYSPVSEKHLADGMTVGELCAAAITMSDNSAANLLLATVGGPAGLTAFLRQIGDNVTRLDRWETELNEALPGDARDTTTPASMAATLRKLLTSQRLSARSQRQLLQWMVDDRVAGPLIRSVLPAGWFIADKTGAGERGARGIVALLGPNNKAERIVVIYLRDTPASMAERNQQIAGIGAALIEHWQR
For the protein B1, the Km (as a rule, the substrate concentration at which the rate is half of its maximum) in [1] worked out at 16 µM; in series [2] it was 160 µM; in series [3], 81 µM; in series [4], 130 µM. Further, the kcat (commonly the maximal rate divided by the concentration of active sites) was 1300 s⁻¹ in series [1], 500 s⁻¹ in series [2], 2.1 s⁻¹ in series [3] and 30 s⁻¹ in series [4]. Also, the kcat/Km (in general, the turnover number divided by the Michaelis constant) in series [5] was 8.1e+07 M⁻¹ s⁻¹; in [6] it was 3.1e+06 M⁻¹ s⁻¹; in series [7], 25000 M⁻¹ s⁻¹; in series [8] it was 230000 M⁻¹ s⁻¹.

B2: Beta-lactamase (Staphylococcus aureus), P00807 (protein)
chain: MKKLIFLIVIALVLSACNSNSSHAKELNDLEKKYNAHIGVYALDTKSGKEVKFNSDKRFAYASTSKAINSAILLEQVPYNKLNKKVHINKDDIVAYSPILEKYVGKDITLKALIEASMTYSDNTANNKIIKEIGGIKKVKQRLKELGDKVTNPVRYEIELNYYSPKSKKDTSTPAAFGKTLNKLIANGKLSKENKKFLLDLMLNNKSGDTLIKDGVPKDYKVADKSGQAITYASRNDVAFVYPKGQSEPIVLVIFTNKDNKSDKPNDKLISETAKSVMKEF
As to B2, the Km is 3.4 µM in series [9]; 29 µM in series [10]; 110 µM in series [11]; 61 µM in series [12]; 78 µM in series [13]. For the same protein, the kcat in series [9] is 65 s⁻¹; in series [10], 0.00035 s⁻¹; in series [11], 0.14 s⁻¹; in [12], 0.002 s⁻¹; in series [13], 0.024 s⁻¹. In addition, the kcat/Km in series [14] amounted to 1.9e+07 M⁻¹ s⁻¹; in [15], 12 M⁻¹ s⁻¹; in [16], 1300 M⁻¹ s⁻¹; in series [17], 33 M⁻¹ s⁻¹; in series [18], 310 M⁻¹ s⁻¹.

B3: Beta-lactamase (Serratia marcescens), P18539 (protein)
chain: MTKMNRCAALIAALILPTAHAAQQQDIDAVIQPLMKKYGVPGMAIAVSVDGKQQIYPYGVASKQTGKPITEQTLFEVGSLSKTFTATLAVYAQQQSKLSFKDPASHYLPDVRGSAFDGVSLLNLATHTSGLPLFVPDDVTNNAQLMAYYRAWQPKHPAGSYRVYSNLGIGMLGMIAAKSLDQPFIQAMEQGMLPALGMSHTYVQVPAAQMANYAQGYSKDDKPVRVNPGPLDAESYGIKSNARDLIRYLDANLQQVKVASVARRWPRRTSVITSAGAFTQDLMWENYPYPVKLSRLIEGNNAGMIMNGTPATAITPPQPELRAGWYNKTGSTGGFSTYAVFIPAKNIAVEMLANKWFPNDDRVEAAYHIIQALEKR
In the case of B3, the Michaelis-Menten constant (Km) in series [19] was 2.1 µM; in [20], 570 µM; in series [21], 14 µM; in [22], 680 µM; in series [23], > 800 µM; in series [24] it was 320 µM. The kcat was 19 s⁻¹ in series [19]; < 0.05 s⁻¹ in series [20]; 840 s⁻¹ in [21]; 2000 s⁻¹ in series [22]; < 0.55 s⁻¹ in series [23]; < 2.7 s⁻¹ in series [24]. Also, the kcat/Km was 9e+06 M⁻¹ s⁻¹ in [25]; < 88 M⁻¹ s⁻¹ in series [26]; 6e+07 M⁻¹ s⁻¹ in series [27]; 3.1e+06 M⁻¹ s⁻¹ in [28]; < 690 M⁻¹ s⁻¹ in [29]; < 8400 M⁻¹ s⁻¹ in series [30].
